Experimental data published in patent US20210386836.

Experiments:
[1] = target: T1, C-Reactive protein, P02741
T1 chain: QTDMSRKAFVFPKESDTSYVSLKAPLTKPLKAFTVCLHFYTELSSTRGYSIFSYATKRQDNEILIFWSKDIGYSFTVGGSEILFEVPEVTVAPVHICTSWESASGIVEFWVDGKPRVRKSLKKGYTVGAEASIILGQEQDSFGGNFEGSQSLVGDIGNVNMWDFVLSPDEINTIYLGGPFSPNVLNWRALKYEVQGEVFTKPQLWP

C1 inhibitor, P05155 = target: T2, C1 inhibitor, P05155
T2 chain: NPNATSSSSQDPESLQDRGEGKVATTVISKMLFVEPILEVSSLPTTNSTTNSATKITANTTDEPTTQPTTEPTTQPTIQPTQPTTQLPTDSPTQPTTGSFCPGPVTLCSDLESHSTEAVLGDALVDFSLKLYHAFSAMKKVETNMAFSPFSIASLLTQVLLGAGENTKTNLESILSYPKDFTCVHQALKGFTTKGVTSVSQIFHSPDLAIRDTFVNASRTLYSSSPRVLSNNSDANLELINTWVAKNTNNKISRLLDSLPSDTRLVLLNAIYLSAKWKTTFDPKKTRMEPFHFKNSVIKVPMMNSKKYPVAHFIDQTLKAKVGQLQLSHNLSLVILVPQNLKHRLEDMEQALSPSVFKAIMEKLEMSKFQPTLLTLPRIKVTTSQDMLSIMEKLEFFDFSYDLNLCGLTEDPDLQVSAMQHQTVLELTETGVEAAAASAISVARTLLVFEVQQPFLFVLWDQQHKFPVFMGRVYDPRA

[2] = target: T3, C4-Binding protein, P04003
T3 chain 1: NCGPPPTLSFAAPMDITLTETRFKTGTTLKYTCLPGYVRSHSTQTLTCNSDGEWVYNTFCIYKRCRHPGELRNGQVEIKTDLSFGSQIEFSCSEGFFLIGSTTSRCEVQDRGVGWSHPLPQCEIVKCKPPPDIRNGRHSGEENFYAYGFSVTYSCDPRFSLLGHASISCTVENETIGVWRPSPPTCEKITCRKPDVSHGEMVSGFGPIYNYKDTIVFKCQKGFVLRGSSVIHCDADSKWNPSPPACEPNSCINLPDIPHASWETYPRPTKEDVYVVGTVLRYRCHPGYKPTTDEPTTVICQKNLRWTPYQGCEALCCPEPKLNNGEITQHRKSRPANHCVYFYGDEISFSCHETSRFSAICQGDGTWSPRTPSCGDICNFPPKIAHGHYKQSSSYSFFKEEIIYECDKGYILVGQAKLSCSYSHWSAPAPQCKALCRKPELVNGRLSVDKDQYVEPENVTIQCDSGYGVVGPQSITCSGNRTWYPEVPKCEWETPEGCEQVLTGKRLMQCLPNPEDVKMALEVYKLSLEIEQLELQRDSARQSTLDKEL
T3 chain 2: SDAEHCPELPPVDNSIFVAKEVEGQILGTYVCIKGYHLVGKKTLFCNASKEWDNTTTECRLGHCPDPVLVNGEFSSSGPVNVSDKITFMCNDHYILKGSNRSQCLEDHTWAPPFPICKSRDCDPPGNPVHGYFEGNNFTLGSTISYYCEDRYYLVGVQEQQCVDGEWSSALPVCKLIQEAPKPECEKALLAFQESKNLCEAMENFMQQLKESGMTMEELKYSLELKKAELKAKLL

Factor H, P08603 = target: T4, Factor H, P08603
T4 chain: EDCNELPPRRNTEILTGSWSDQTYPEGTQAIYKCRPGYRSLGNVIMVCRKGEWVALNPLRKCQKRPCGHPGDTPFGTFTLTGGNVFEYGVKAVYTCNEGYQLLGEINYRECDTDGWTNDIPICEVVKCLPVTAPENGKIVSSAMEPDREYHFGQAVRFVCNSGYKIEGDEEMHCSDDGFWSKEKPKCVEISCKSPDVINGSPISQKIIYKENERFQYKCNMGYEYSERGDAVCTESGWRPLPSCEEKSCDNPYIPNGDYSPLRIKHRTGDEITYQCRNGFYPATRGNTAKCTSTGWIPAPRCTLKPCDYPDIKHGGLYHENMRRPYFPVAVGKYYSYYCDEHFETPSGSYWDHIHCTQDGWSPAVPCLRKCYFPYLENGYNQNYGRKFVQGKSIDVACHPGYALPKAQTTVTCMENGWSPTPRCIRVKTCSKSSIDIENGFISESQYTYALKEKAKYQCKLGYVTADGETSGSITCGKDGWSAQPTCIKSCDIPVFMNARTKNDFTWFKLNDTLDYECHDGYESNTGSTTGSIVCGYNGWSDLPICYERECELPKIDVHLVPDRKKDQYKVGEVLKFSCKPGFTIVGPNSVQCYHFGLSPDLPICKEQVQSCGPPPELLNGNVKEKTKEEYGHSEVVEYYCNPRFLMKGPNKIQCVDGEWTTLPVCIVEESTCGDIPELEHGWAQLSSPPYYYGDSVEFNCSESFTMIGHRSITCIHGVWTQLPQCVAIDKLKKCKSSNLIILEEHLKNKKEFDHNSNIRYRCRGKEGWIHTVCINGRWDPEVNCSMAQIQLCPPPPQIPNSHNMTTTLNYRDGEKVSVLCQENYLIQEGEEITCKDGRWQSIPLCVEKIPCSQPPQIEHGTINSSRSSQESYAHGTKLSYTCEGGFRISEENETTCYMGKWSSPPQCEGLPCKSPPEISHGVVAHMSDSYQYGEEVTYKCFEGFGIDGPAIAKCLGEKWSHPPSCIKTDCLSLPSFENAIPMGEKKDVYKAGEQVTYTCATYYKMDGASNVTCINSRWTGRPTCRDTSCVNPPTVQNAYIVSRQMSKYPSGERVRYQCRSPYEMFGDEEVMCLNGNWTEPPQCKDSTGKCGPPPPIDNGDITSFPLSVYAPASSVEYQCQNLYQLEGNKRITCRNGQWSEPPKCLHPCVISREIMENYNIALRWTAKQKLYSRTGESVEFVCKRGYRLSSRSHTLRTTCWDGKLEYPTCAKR

Chain of Factor B, P00751 (P00751 26-764): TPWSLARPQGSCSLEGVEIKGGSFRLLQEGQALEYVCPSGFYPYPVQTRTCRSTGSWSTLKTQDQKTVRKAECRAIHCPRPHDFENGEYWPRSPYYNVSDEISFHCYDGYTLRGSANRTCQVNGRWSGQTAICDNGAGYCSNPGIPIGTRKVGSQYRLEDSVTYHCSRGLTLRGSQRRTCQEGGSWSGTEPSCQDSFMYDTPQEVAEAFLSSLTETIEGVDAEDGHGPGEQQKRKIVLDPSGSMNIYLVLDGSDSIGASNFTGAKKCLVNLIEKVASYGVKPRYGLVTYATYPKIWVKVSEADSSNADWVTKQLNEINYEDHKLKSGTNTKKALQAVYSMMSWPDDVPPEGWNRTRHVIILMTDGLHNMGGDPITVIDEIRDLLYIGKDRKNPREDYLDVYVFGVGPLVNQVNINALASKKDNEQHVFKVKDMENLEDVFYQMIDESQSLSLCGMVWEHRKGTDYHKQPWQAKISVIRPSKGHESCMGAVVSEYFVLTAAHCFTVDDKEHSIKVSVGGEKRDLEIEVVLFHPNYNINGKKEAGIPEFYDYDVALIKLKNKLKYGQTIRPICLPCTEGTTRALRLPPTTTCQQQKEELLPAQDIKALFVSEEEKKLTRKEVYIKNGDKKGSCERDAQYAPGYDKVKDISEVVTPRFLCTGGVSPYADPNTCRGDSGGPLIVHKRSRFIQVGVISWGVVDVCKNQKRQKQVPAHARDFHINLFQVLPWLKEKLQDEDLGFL
Chain of Properidin, P27918 (P27918 28-469): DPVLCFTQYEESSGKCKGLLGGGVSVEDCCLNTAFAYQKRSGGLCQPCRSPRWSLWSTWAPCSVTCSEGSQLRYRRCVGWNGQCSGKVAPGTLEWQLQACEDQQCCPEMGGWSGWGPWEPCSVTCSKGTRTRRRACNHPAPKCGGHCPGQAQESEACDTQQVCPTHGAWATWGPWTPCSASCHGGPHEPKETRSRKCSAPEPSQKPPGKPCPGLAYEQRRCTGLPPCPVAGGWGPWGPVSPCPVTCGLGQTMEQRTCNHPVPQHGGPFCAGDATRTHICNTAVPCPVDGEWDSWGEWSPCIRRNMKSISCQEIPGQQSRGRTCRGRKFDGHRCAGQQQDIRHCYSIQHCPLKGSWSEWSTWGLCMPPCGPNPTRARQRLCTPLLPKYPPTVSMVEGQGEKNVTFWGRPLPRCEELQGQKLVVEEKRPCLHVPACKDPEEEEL

B1: PrtI(ProB) (protein)
chain: AIGETSVQNVKVSVAKNESDSQKFNNSQNLEQKTPQAAAANQNGSQVQNDHTETQLQNQQTTQSQVTQAHTEENNASSIPEPANQADHVKGNVQSAWDQGYKGQNTVVAVIDSGADTSHKDFQTMPSNPKLKQEDVQSKIDQQGYGKYVNEKFPYVYNYADRDNDYIKSDDNNQXNDSPHGQHVSGIIAADGHPEGDQQYVVGVAPEAQLMQLRVFGQFSDEKTDDVARAIYDATNLGADVIQMSLGQGVADQQLTNIEQKAVQYAIDHGVFVSISASNNGNSASVDNPSKVTAKGYGSGSEAGNYEPLNSGTVANPGASKNALTVAAETSGTGKDSDMASFSSWGPLSDFSLKPDLSAPGYQVVSTVNDNQYQTMSGTSMAGPFAAGSAALVIQRLKQTNPELKGAELVAATKALLMNSAKVQTQNGYTTPVSPRRQGAGQIDVGAATANPVYVTAADGTSSLSLRQVDEKTTFTLTFHNLTDQEQSYSFNDLGGGYTEQRDPDSGVFHEVQLAGAHVNGVGNFTLAPKEVKDLQYTLDLQGLNKNQPVEGWLHFTNDKDKSTVVVPYLAYYGDLTSENVFDQNANEEKPDIQGNRFVNENNYPLGVTDQESLKQLVNVDSDYNWQEVAKLYESGKVAFSPNDDHQSDLIKPYAYLKQNVKDLKVEILDAKGNVVRVVSDVQGVDKSYDESGVTKDASLSVSMRDNPDAFEWDGKVYDTKTGQMVTAPDGQYTYRFVATLWNEGPNQKQTADFPVVVDTQAPSLSVKYDSATHTLSGNYEDKGAGFTDYSYVTVQVNDKVFGYKLNEGESGFDNSEKTKGHFNFTLSSDALDALSGSLNKVSVTLSDVANNTTVKTVDVPAVKDQPAVSVWNATEGVEFNKNSKDYNKENDTYTLYGSAAQDFYLNGALVQVRDGKYEVPVKTTTQDLVFSTDQAGKNVLKSFTTFTPKAFFNWQNVDGFDGNFGVNIYSVKTNDPNNAVVQAAVPLGKNVKAYAQDYFTGEVYKGQVENGVATFHVHTSINQGEDGIFKRALLTGWSEVDGPAYNDKQVTSKAGVASSNHLGVYYTTDKVNRKVYTDRADLGVDVQDEAADLSSFGPTAYPGHALADLTTRTDPNPAIHFDYLNDNDTTRFGQNAVTDGYYDSVTKKFTVTGHVDPEVKSLTVLGDSSDENAPQNQVKLGKDGKFSFSFTTENVGQRPVAYIYTDQNGQKVRGTLNVVLDTVAPTLNVDQVNGNELEVKTNNPLFKLSGVVNDNLDGYRLYVNGNNIYREFLNSGYNKLAGLNTDGTDVNPYGPHNFEESFNLNDDNNQPTTHVFTIYVVDQVGNKVEKKIAVNYDPDYVA
modifications: not fully specified; X: residue not identified in the source
- proteolytic activity (SDS-PAGE) [1]: None of the complement proteins tested show evidence of breakdown
- proteolytic activity (SDS-PAGE) (C1 inhibitor, P05155): None of the complement proteins tested show evidence of breakdown
- proteolytic activity (SDS-PAGE) (C4): None of the complement proteins tested show evidence of breakdown
- proteolytic activity (SDS-PAGE) [2]: None of the complement proteins tested show evidence of breakdown
- proteolytic activity (SDS-PAGE) (C5, P01031): None of the complement proteins tested show evidence of breakdown
- proteolytic activity (SDS-PAGE) (Factor B, P00751): None of the complement proteins tested show evidence of breakdown
- proteolytic activity (SDS-PAGE) (Factor H, P08603): None of the complement proteins tested show evidence of breakdown
- protein cleavage assay (SDS-PAGE) (IL-1β): has activities against
- protein cleavage assay (SDS-PAGE) (IL-8): has activities against
- protein cleavage assay (SDS-PAGE) (IP-10): has activities against
- proteolytic activity (SDS-PAGE) (Properidin, P27918): None of the complement proteins tested show evidence of breakdown
